Key:
[1] = molecular target: biotinylated single chain human FcRn (beta-2-microglobulin-human FcRn fusion polypeptide with (GGGGS)4-peptidic linker and C-terminal His(10)-Avi-tag) (human) (UniProt P61769); assay: SPR, C1 chip, scFcRn about 80 RU, Interaction Map spot; 150 mM NaCl; intramolecular binding 1+2
[2] = molecular target: biotinylated single chain human FcRn (beta-2-microglobulin-human FcRn fusion polypeptide with (GGGGS)4-peptidic linker and C-terminal His(10)-Avi-tag) (human) (UniProt P61769); assay: SPR, C1 chip, scFcRn about 80 RU, Interaction Map spot; 150 mM NaCl; intramolecular binding 1+2+1+2
[3] = molecular target: biotinylated single chain human FcRn (beta-2-microglobulin-human FcRn fusion polypeptide with (GGGGS)4-peptidic linker and C-terminal His(10)-Avi-tag) (human) (UniProt P61769); assay: SPR, C1 chip, scFcRn about 80 RU, Interaction Map spot; 400 mM NaCl; intramolecular binding 1+2
[4] = molecular target: biotinylated single chain human FcRn (beta-2-microglobulin-human FcRn fusion polypeptide with (GGGGS)4-peptidic linker and C-terminal His(10)-Avi-tag) (human) (UniProt P61769); assay: SPR, C1 chip, scFcRn about 80 RU, Interaction Map spot; 400 mM NaCl; intermolecular binding 1+1′
[5] = molecular target: biotinylated single chain human FcRn (beta-2-microglobulin-human FcRn fusion polypeptide with (GGGGS)4-peptidic linker and C-terminal His(10)-Avi-tag) (human) (UniProt P61769); assay: SPR, C1 chip, scFcRn about 80 RU, Interaction Map spot; 150 mM NaCl; intermolecular binding 1+1′
[6] = molecular target: biotinylated single chain human FcRn (beta-2-microglobulin-human FcRn fusion polypeptide with (GGGGS)4-peptidic linker and C-terminal His(10)-Avi-tag) (human) (UniProt P61769); assay: SPR, C1 chip, scFcRn about 80 RU, Interaction Map spot; 150 mM NaCl; intermolecular binding 1+2′
[7] = molecular target: biotinylated single chain human FcRn (beta-2-microglobulin-human FcRn fusion polypeptide with (GGGGS)4-peptidic linker and C-terminal His(10)-Avi-tag) (human) (UniProt P61769); assay: SPR, C1 chip, scFcRn about 80 RU, Interaction Map spot; 400 mM NaCl; intramolecular binding 1+2+1+2
[8] = molecular target: biotinylated single chain human FcRn (beta-2-microglobulin-human FcRn fusion polypeptide with (GGGGS)4-peptidic linker and C-terminal His(10)-Avi-tag) (human) (UniProt P61769); assay: SPR, C1 chip, scFcRn amine-coupled about 80 RU, antibody as analyte, Interaction Map spot; 150 mM NaCl; intramolecular (FIG. 16 spot 1)
[9] = molecular target: biotinylated single chain human FcRn (beta-2-microglobulin-human FcRn fusion polypeptide with (GGGGS)4-peptidic linker and C-terminal His(10)-Avi-tag) (human) (UniProt P61769); assay: SPR, C1 chip, scFcRn about 80 RU, Interaction Map spot; 400 mM NaCl; intramolecular
[10] = molecular target: biotinylated single chain human FcRn (beta-2-microglobulin-human FcRn fusion polypeptide with (GGGGS)4-peptidic linker and C-terminal His(10)-Avi-tag) (human) (UniProt P61769); assay: SPR, C1 chip, scFcRn about 80 RU, Interaction Map spot; 400 mM NaCl; intermolecular
[11] = molecular target: biotinylated single chain human FcRn (beta-2-microglobulin-human FcRn fusion polypeptide with (GGGGS)4-peptidic linker and C-terminal His(10)-Avi-tag) (human) (UniProt P61769); assay: SPR, C1 chip, scFcRn amine-coupled about 80 RU, antibody as analyte, Interaction Map spot; 150 mM NaCl; intermolecular (FIG. 16 spot 2)
[12] = molecular target: biotinylated single chain human FcRn (beta-2-microglobulin-human FcRn fusion polypeptide with (GGGGS)4-peptidic linker and C-terminal His(10)-Avi-tag) (human) (UniProt P61769); assay: SPR, scFcRn on C1 chip, Interaction Map spot; 400 mM NaCl; intramolecular
[13] = molecular target: biotinylated single chain human FcRn (beta-2-microglobulin-human FcRn fusion polypeptide with (GGGGS)4-peptidic linker and C-terminal His(10)-Avi-tag) (human) (UniProt P61769); assay: SPR, scFcRn on C1 chip, Interaction Map spot; 400 mM NaCl; intermolecular, second of two spots
[14] = molecular target: biotinylated single chain human FcRn (beta-2-microglobulin-human FcRn fusion polypeptide with (GGGGS)4-peptidic linker and C-terminal His(10)-Avi-tag) (human) (UniProt P61769); assay: SPR, scFcRn on C1 chip, Interaction Map spot; 150 mM NaCl; intermolecular (FIG. 16 spot 2)
[15] = molecular target: biotinylated single chain human FcRn (beta-2-microglobulin-human FcRn fusion polypeptide with (GGGGS)4-peptidic linker and C-terminal His(10)-Avi-tag) (human) (UniProt P61769); assay: SPR, scFcRn on C1 chip, Interaction Map spot; 150 mM NaCl; intramolecular (FIG. 16 spot 1)
[16] = molecular target: biotinylated single chain human FcRn (beta-2-microglobulin-human FcRn fusion polypeptide with (GGGGS)4-peptidic linker and C-terminal His(10)-Avi-tag) (human) (UniProt P61769); assay: SPR, scFcRn on C1 chip, Interaction Map spot; 400 mM NaCl; intermolecular, first of two spots
[17] = molecular target: biotinylated single chain human FcRn (beta-2-microglobulin-human FcRn fusion polypeptide with (GGGGS)4-peptidic linker and C-terminal His(10)-Avi-tag) (human) (UniProt P61769); assay: SPR, C1 chip, scFcRn about 80 RU, Interaction Map spot; 400 mM NaCl and 20% (w/w) ethylene glycol; intermolecular binding 1+1′
[18] = molecular target: biotinylated single chain human FcRn (beta-2-microglobulin-human FcRn fusion polypeptide with (GGGGS)4-peptidic linker and C-terminal His(10)-Avi-tag) (human) (UniProt P61769); assay: SPR, C1 chip, scFcRn about 80 RU, Interaction Map spot; 400 mM NaCl; intermolecular binding 1+2′
[19] = molecular target: biotinylated single chain human FcRn (beta-2-microglobulin-human FcRn fusion polypeptide with (GGGGS)4-peptidic linker and C-terminal His(10)-Avi-tag) (human) (UniProt P61769); assay: SPR, C1 chip, scFcRn about 80 RU, Interaction Map spot; 400 mM NaCl and 20% (w/w) ethylene glycol; intramolecular binding 1+2
[20] = molecular target: biotinylated single chain human FcRn (beta-2-microglobulin-human FcRn fusion polypeptide with (GGGGS)4-peptidic linker and C-terminal His(10)-Avi-tag) (human) (UniProt P61769); assay: SPR, scFcRn on C1 chip, Interaction Map spot; 400 mM NaCl; intermolecular

biotinylated single chain human FcRn (beta-2-microglobulin-human FcRn fusion polypeptide with (GGGGS)4-peptidic linker and C-terminal His(10)-Avi-tag) (human), sequence (P61769 other isoform, or with tags, fused parts or gaps limits assumed): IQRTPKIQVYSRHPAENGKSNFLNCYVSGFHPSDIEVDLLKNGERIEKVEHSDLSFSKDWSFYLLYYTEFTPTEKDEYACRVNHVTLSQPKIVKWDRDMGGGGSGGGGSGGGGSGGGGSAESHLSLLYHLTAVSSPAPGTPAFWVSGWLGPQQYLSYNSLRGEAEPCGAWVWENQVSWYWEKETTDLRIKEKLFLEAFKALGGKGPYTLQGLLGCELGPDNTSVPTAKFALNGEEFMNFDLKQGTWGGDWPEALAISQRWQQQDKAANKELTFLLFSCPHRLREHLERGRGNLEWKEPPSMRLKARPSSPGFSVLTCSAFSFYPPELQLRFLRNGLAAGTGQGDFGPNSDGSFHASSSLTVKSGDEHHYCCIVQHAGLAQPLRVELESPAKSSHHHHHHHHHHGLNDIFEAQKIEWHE

Row | Kd [1] [nM] | Kd [2] [nM] | Kd [3] [nM] | Kd [4] [nM] | Kd [5] [nM] | Kd [6] [nM] | Kd [7] [nM] | Kd [12] [nM] | Kd [14] [nM] | Kd [15] [nM] | Substance | further results
1 | 177 | 0.12 | 156 | 25 | 71 | 3 | 0.13 |  |  |  | anti-digoxygenin Fabs connected to an IgG1 Fc-region with the mutations T307H/N434H in both Fc-region polypeptides (from UniProt P01857 104-330) (antibody) | 
2 |  |  |  |  |  |  |  |  |  |  | anti-digoxygenin-Fabs added to the Fc-region with a single FcRn binding site (mutations I253A/H310A/H435A in one Fc-region polypeptide and wild-type in the respective other Fc-region polypeptide) (from UniProt P01857 104-330; P01857 104-330) (antibody) | Kd [8]: 1250 nM; Kd [9]: 1060 nM; Kd [10]: 60 nM; Kd [11]: 20.5 nM
3 |  |  |  |  |  |  |  | 325 | 10.4 | 391 | asymmetric antibody with the mutations I253A/H310A/H435A in one Fc-region polypeptide and the mutations T307H/N434H in the respective other Fc-region polypeptide (from UniProt P01857 104-330; P01857 104-330) | Kd [13]: 39 nM; Kd [16]: 4.3 nM
4 | 382 | 0.16 | 840 | 100 | 126 | 5.7 | 0.33 |  |  |  | anti-digoxygenin Fabs connected to a wild-type IgG1 Fc-region (from UniProt P01857 104-330) (antibody) | Kd [17]: 75 nM; Kd [18]: 4.8 nM; Kd [19]: 1140 nM
5 |  |  |  |  |  |  |  | 166 | 4.7 | 184 | asymmetric antibody with the mutations I253A/H310A/H435A in one Fc-region polypeptide and the mutations M252Y/S254T/T256E in the respective other Fc-region polypeptide (from UniProt P01857 104-330; P01857 104-330) | Kd [20]: 6.2 nM
6 | 92 |  | 92 |  |  |  | 1.6 |  |  |  | anti-digoxygenin Fabs connected to an IgG1 Fc-region with the mutations M252Y/S254T/T256E in both Fc-region polypeptides (from UniProt P01857 104-330) (antibody) | 
